Laboratory results reported in publication PMC3342691 (Nature structural & molecular biology, 2011).

Biological target: Xenopus tropicalis tubulin tyrosine ligase (residues 2–377) (Xenopus tropicalis)
Assay: AUC

VDSVEGEGEEEGEE [14-residue α–tubulin C-terminal peptide (VDSVEGEGEEEGEE)]
Kd: ~144 µM
